Reference: article PMC11718114
Numbering of substitutions follows the chain as printed. In names and notes the source's numbering stands. Blank lines part the entries; values can stand above or below the binder they belong to.

Biological target: PI3Kα-RBD (PIK3CA-RBD(157-289)), P42336
Test: ITC
Settings: chain shown with the change;; parent: est. 8.0 µM; read off a plot

- Kd: 21 µM
B1: RRAS2 (wild type), P62070 F75A (protein)
chain: MAAAGWRDGSGQEKYRLVVVGGGGVGKSALTIQFIQSYFVTDYDPTIEDSYTKQCVIDDRAARLDILDTAGQEEAGAMREQYMRTGEGFLLVFSVTDRGSFEEIYKFQRQILRVKDRDEFPMILIGNKADLDHQRQVTQEEGQQLARQLKVTYMEASAKIRMNVDQAFHELVRVIRKFQ

- Kd: 130 µM
B2: RRAS2 (wild type), P62070 M78A (protein)
chain: B1 chain with A75F, M78A

- Kd: 12 µM
B3: RRAS2 (wild type), P62070 E74A (protein)
chain: B1 chain with E74A, A75F
